Measured values from the supplement of paper PMC10567573.

B1: ZNF449 (parent)
chain: QLTGHQRIHSGEEPHKCPECGKRF
B2: C8orf76 (parent)
chain: YCAKLCEPQWFYEETESSDDVEVL

Variants of: B1
Assay: protein stability index of a GFP-peptide fusion (GPS, HEK-293T) (PSI 1-6); higher = more stable
Conditions: c terminus: a fixed tail appended
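Further: lentivirally expressed fusions sorted by FACS into six bins by GFP to DsRed ratio, PSI derived from sequencing read proportions per bin multiplied by bin number.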

Protein stability index, by site and new letter:
R23: M 4.06; L 4.74; G 4.32; H 4.23; D 4.99; N 3.95; C 3.93; V 4.72; F 3.98; Q 3.44; K 5.28; W 3.92; A 4.91; S 4.83; T 4.52; P 4.28; E 5.37
K22: W 3.6; H 4.3; T 4.21; Q 3.85; Y 4.3; C 4.2; R 4; L 4.29; P 4.22; F 4.03; M 4.43; N 4.16; I 3.73; S 4.71; E 4.62; D 4.49; A 4.72; V 4.51
E19: F 3.69; N 4.01; D 3.4; T 4.03; I 3.37; L 3.16; S 3.62; Q 3.23; G 3.09; M 4.05; V 4.53; H 4.12; Y 3.95; K 3.33; R 3.15; W 3.61; P 4.23
G21: C 3.77; H 4.08; W 3.73; P 4.7; M 4.53; K 4.41; Y 3.6; R 4.34; L 4.6; E 4.87; I 4.34; Q 4.47; S 4.32; D 4.36; V 4.49; F 4.19; A 4.21; N 4.47; T 4.47
F24: M 4.13; C 5.12; H 4.84; G 4.7; A 5.07; T 4.83; E 4.88; N 4.4; L 4.64; I 3.65; Y 4.58; Q 4.62
C20: N 4.49; G 4.49; D 5.03; F 4.39; W 4.34; A 4.35; M 3.82; S 4.37; K 4.99; I 4.36; L 4.05; Y 4.67; E 5.41; R 5.4; Q 4.79; P 4.61; H 4.46; V 3.71; T 4.87

Variants of: B2
Assay: as above
Conditions: c terminus: a fixed tail appended

Protein stability index of substitutions, site by site:
C2: F 2.59; N 2.91; K 4.17; I 2.65; D 4.96; Q 2.51; P 4.2; Y 2.87; T 3.22; R 4.17; A 1.94; E 4.91; M 3.62; L 2.94; G 3.72; V 2.1; W 2.82; H 1.68; S 3.63
Y1: C 4.28; E 4.99; T 5.11; G 4.56; I 3.45; W 3.66; P 4.76; K 4.66; D 5.04; M 4.26; H 4.36; R 4.92; A 4.42; L 3.71; V 4.2; N 5.01; S 4.19; F 1.91; Q 4.45
K4: A 2.54; D 3.69; H 2.84; G 1.98; I 2.29; C 2.96; E 4.61; F 2.56
A3: Q 2.28; P 1.71; S 2.78; W 1.95; D 3.48; V 3.04; I 2.51; N 2.74; E 4.06; M 3.1; G 2.01; H 2.59; K 3.07; T 2.45; L 2.78; F 2.3; C 2.7; Y 2.83; R 1.75
